# Measured values from publication PMC9645763, “CK2-mediated phosphorylation of SUZ12 promotes PRC2 function by stabilizing enzyme active site” (Nature Communications, 2022).
# Molecular target: T1, EZH1 of the truncated minimal complex used for crystallization (human, UniProt Q92800 1-187; Q92800 230-491; Q92800 497-747, residues 353–413 of EZH1 were deleted)
# T1 construct: human EZH1, residues 1-187; linker that replaces residues 188–229 of EZH1; human EZH1, residues 230-491 with 353–413 deleted; linker that replaces residues 492–496 of EZH1; human EZH1, residues 497-747; In the crystal joined on one chain with m3 through an LVPRGS linker; source: S. cerevisiae CB010, purified (IgG-sepharose, TEV cleavage, Superdex 200); not shown: His6, N-terminal, …
# T1 sequence (Q92800 other isoform, or with tags, fused parts or gaps with the stated changes): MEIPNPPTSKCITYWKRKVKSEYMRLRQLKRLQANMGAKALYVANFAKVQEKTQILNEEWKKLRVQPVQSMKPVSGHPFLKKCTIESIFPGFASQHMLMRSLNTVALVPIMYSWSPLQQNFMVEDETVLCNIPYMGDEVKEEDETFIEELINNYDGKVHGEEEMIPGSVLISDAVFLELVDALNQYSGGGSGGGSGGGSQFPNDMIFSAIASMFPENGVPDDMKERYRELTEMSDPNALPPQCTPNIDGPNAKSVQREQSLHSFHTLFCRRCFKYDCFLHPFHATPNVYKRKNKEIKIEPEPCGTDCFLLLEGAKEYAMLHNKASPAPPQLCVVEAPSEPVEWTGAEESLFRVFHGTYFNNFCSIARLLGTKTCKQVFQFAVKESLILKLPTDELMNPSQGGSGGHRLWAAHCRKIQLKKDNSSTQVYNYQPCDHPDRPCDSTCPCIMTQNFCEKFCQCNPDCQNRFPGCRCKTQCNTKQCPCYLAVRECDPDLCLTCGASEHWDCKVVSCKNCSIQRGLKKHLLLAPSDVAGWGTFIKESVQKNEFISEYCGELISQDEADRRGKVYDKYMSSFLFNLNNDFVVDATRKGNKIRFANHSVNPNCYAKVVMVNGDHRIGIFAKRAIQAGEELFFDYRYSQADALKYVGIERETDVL
# Test: crystal structure; truncated minimal EZH1–EED–SUZ12(VEFS) complex at 10 mg/ml pre-incubated with 0.5 mM H3K27M peptide, 0.5 mM H3K27me3 peptide and 1 mM SAM; 10% PEG3350, 100 mM ammonium sulfate, 50 mM HEPES pH 6.8; 3.0 Å
# Conditions: both partners purified
binder,measurement,value
"EED of the truncated minimal complex used for crystallization (domain or fragment, human EED, residues 1–77 replaced by a StrepII tag; source: S. cerevisiae CB010, co-expressed, purified with the complex (IgG-sepharose, TEV cleavage, Superdex 200); not shown: StrepII, N-terminal, kept) not shown",binding result,binds
